{
  "source": "patent US20080213281A1",
  "about": "“Butyrylcholinesterase Variants that Alter the Activity of Chemotherapeutic Agents” (priority 2002, published 2008)",
  "molecules": {"B1": {"name": "wild-type butyrylcholinesterase (protein, UniProt P06276 29-602, looked up)", "Cholinesterase": "EDDIIIATKNGKVRGMNLTVFGGTVTAFLGIPYAQPPLGRLRFKKPQSLTKWSDIWNATKYANSCCQNIDQSFPGFHGSEMWNPNTDLSEDCLYLNVWIPAPKPKNATVLIWIYGGGFQTGTSSLHVYDGKFLARVERVIVVSMNYRVGALGFLALPGNPEAPGNMGLFDQQLALQWVQKNIAAFGGNPKSVTLFGESAGAASVSLHLLSPGSHSLFTRAILQSGSFNAPWAVTSLYEARNRTLNLAKLTGCSRENETEIIKCLRNKDPQEILLNEAFVVPYGTPLSVNFGPTVDGDFLTDMPDILLELGQFKKTQILVGVNKDEGTAFLVYGAPGFSKDNNSIITRKEFQEGLKIFFPGVSEFGKESILFHYTDWVDDQRPENYREALGDVVGDYNFICPALEFTKKFSEWGNNAFFYYFEHRSSKLPWPEWMGVMHGYEIEFVFGLPLERRDNYTKAEEILSRSIVKRWANFAKYGNPNETQNNSTSWPVFKSTEQKYLTLNTESTRIMTKLRAQQCRFWTSFFPKVLEMTGNIDEAEWEWKAGFHRWNNYMMDWKNQFNDYTSKKESCVGL"}, "B2": {"name": "F227A/L286W (protein)", "chain": "B1 Cholinesterase with F227A, L286W", "modifications": "Synthetic butyrylcholinesterase variant; VARIANT (227)..(227): F227A; VARIANT (286)..(286): L286W"}, "B3": {"name": "F227A/S287P (protein)", "chain": "B1 Cholinesterase with F227A, S287X", "modifications": "Synthetic butyrylcholinesterase variant; VARIANT (227)..(227): F227A; VARIANT (287)..(287): Xaa = Pro"}, "B4": {"name": "F227A/L286H (protein)", "chain": "B1 Cholinesterase with F227X, L286H", "modifications": "Synthetic butyrylcholinesterase variant; VARIANT (227)..(227): Xaa = Ala; VARIANT (286)..(286): L286H"}, "B5": {"name": "F227A/L286S (protein)", "chain": "B1 Cholinesterase with F227X, L286S", "modifications": "Synthetic butyrylcholinesterase variant; VARIANT (227)..(227): Xaa = Ala; VARIANT (286)..(286): L286S"}, "B6": {"name": "4-1 variant (protein)", "chain": "B1 Cholinesterase with H77F, F227X, P285N, V331A", "modifications": "Synthetic butyrylcholinesterase variant; VARIANT (77)..(77): H77F; VARIANT (227)..(227): Xaa = Ala; VARIANT (285)..(285): P285N; VARIANT (331)..(331): V331A"}, "B7": {"name": "F227A/L286Q (protein)", "chain": "B1 Cholinesterase with F227X, L286Q", "modifications": "Synthetic butyrylcholinesterase variant; VARIANT (227)..(227): Xaa = Ala; VARIANT (286)..(286): L286Q"}, "B8": {"name": "F227A/T284A (protein)", "chain": "B1 Cholinesterase with F227X, T284X", "modifications": "Synthetic butyrylcholinesterase variant; VARIANT (227)..(227): Xaa = Ala; VARIANT (284)..(284): Xaa = Ala"}, "B9": {"name": "F227A (protein)", "chain": "B1 Cholinesterase with F227X", "modifications": "Synthetic butyrylcholinesterase variant; VARIANT (227)..(227): Xaa = Ala"}, "B10": {"name": "hCE-2 (protein, UniProt O00748 27-559, looked up)", "Cocaine esterase": "QDSASPIRTTHTGQVLGSLVHVKGANAGVQTFLGIPFAKPPLGPLRFAPPEPPESWSGVRDGTTHPAMCLQDLTAVESEFLSQFNMTFPSDSMSEDCLYLSIYTPAHSHEGSNLPVMVWIHGGALVFGMASLYDGSMLAALENVVVVIIQYRLGVLGFFSTGDKHATGNWGYLDQVAALRWVQQNIAHFGGNPDRVTIFGESAGGTSVSSLVVSPISQGLFHGAIMESGVALLPGLIASSADVISTVVANLSACDQVDSEALVGCLRGKSKEEILAINKPFKMIPGVVDGVFLPRHPQELLASADFQPVPSIVGVNNNEFGWLIPKVMRIYDTQKEMDREASQAALQKMLTLLMLPPTFGDLLREEYIGDNGDPQTLQAQFQEMMADSMFVIPALQVAHFQCSRAPVYFYEFQHQPSWLKNIRPPHMKADHGDELPFVFRSFFGGNYIKFTEEEEQLSRKMMKYWANFARNGNPNGEGLPHWPLFDQEEQYLQLNLQPAVGRALKAHRLQFWKKALPQKIQELEEPEERHTEL"}},
  "key": {"CD20 (human)": {"molecular_target": "CD20 (human) (UniProt P11836)", "assay": "method not stated"}, "[1]": {"conditions": "cited from earlier work; for Km: Humerickhouse et al., read-out: Km (CPT-11 conversion)"}, "[2]": {"assay": "o-nitrophenyl acetate (o-NPA) hydrolysis assay for carboxylesterase activity of antibody-captured butyrylcholinesterase variants", "assay_type": "biochemical", "conditions": "antibody capture/normalization", "procedure": "A modification of this assay that measures o-NPA activity of butyrylcholinesterase variants normalized by capturing with an anti-butyrylcholinesterase antibody was performed as described below.\nProtocol to Determine Carboxylesterase activity of Captured Butyrylcholinesterase by o-Nitrophenyl acetate:\n1) Coat 96-well Immulon 2 plates with rabbit anti-human butyrylcholinesterase (Dako #A0032) at 10 mg/ml in PBS (100 ml/well) overnight at 4° C. 2) Remove coating solution and block plate with 3% BSA in PBS (250 ml/well) for 2 hours at room temperature. 3) Add 200 ml butyrylcholinesterase variant conditioned media and incubate at RT for 2 hrs. 4) Wash plate 3 times with 250 ml/well PBS. 5) Add 85 ml/well 0.1 M potassium phosphate pH 7.0 6) Add 13.6 mg o-NPA to 100 ml acetonitrile, mix to dissolve. Add 100 ml of this stock to 6.3 mls water and mix well. 7) Wash plate 3 times with PBS. 8) Add 15 ml of diluted o-NPA substrate. 9) Read absorbance at 405 nm.\nConditioned media from butyrylcholinesterase variants that were transiently expressed in 293T cells was tested using the above described anti-butyrylcholinesterase antibody capture/normalization assay for carboxylesterase activity. […] The level of activity of the other variants can be compared to the level of activity of F227A. […] In order to determine the amount of variability present in the assay, several wells contained the same variant. […]"}, "[3]": {"assay": "HPLC assay of CPT-11 conversion to SN-38 by conditioned media of transiently expressed BChE variants", "assay_type": "biochemical", "conditions": "for SN-38 formation from CPT-11 (in words): HPLC, compared to mock or wild-type; for Fold improvement in CPT-11 conversion: compared to wild-type butyrylcholinesterase, conditioned media exposed to 20 mM CPT-11 for 72 hours at 37° C., conservative values", "protocol": "Butyrylcholinesterase variants were assayed for CPT-11 conversion activity using fluorescent High Performance Liquid Chromotography (HPLC) detection of SN-38 formation as described in Dodds and Rivory, Mol. Pharmacol. 56:1346-1353 (1999), which is incorporated herein by reference. Briefly, conditioned media from transiently expressed BChE variants were exposed to 20 mM CPT-11 for 72 hours at 37° C. and analyzed by HPLC for SN-38 formation (peak at about 4 minutes column retention time)."}, "[4]": {"assay": "CPT-11 hydrolysis by BChE variant 4-1, SN38 quantitated by reverse-phase HPLC, Km by Hofstee plot", "assay_type": "biochemical", "conditions": "for Km / fold increase in CPT-11 hydrolysis over wild-type BChE: 37° C., 24 hours; for Km: 1-80 μM CPT-11; for fold increase in CPT-11 hydrolysis over wild-type BChE: SN38 peak AUC; for fold improvement in the Km for CPT-11: over wild-type / native serum BChE", "protocol": "BChE plasmid variants were expressed transiently in the human embryonic kidney cell line 293T and assayed for activity at 72 hours post-transfection. Primary screening of variants was performed by indirect measurement of enzymatic activation of CPT-11 (FIG. 2) in SW48 colon carcinoma cell cytotoxicity assays. […] Functional hits identified in these assays were characterized by sequence analysis of the corresponding DNA from the original preps. […] Enzyme was incubated at 37° C. for 24 hours with CPT-11 over a range of concentrations from 1-80 μM. […] Velocity (v) is in light absorbance units at 540 nm. Substrate concentration [s] is μM CPT-11.\nSamples were acidified and resolved by reverse-phase HPLC on a NovaPak C18 column to separate SN38 from unactivated CPT-11. SN38 peak area under the curve (AUC) was used to compare CPT-11 activation by the wild-type enzyme to the optimized BChE.4-1 variant."}},
  "note": "Changes are numbered by the printed parent chain. Numbers in names are those of the source. Entries after “also recorded” stand apart in the source; their conditions may differ. Where two headings read alike, the source gives them in different places.",
  "data": [
    {"molecule": "AME133 Fab (humanized anti-CD20 with fully human germline framework regions)", "values": [
      {"measurement": "Kd", "setting": "CD20 (human)", "value": 1, "unit": "nM"}
    ]},
    {"molecule": "hCE-1", "values": [
      {"measurement": "Km", "setting": "[1]", "value": 43, "unit": "µM"}
    ]},
    {"molecule": "B1", "values": [
      {"measurement": "carboxylesterase activity relative to the level of activity seen with F227A", "setting": "[2]", "value": "approximately 50%"},
      {"measurement": "CPT-11 conversion", "setting": "[3]; HPLC assay, conditioned media", "value": "less than 1%"},
      {"measurement": "SN-38 formation from CPT-11 (in words)", "setting": "[3]; conditioned media", "value": "did not show detectable levels of SN-38"},
      {"measurement": "Km", "setting": "[4]", "value": 40, "unit": "µM"}
    ]},
    {"molecule": "B2", "values": [
      {"measurement": "Fold improvement in CPT-11 conversion", "setting": "[3]", "value": ">42", "unit": "fold"},
      {"measurement": "SN-38 formation from CPT-11 (in words)", "setting": "[3]; conditioned media", "value": "increased CPT-11 conversion to SN-38"}
    ]},
    {"molecule": "B3", "values": [
      {"measurement": "Fold improvement in CPT-11 conversion", "setting": "[3]", "value": ">6", "unit": "fold"},
      {"measurement": "SN-38 formation from CPT-11 (in words)", "setting": "[3]; conditioned media", "value": "increased CPT-11 conversion to SN-38"}
    ]},
    {"molecule": "B4", "values": [
      {"measurement": "Fold improvement in CPT-11 conversion", "setting": "[3]", "value": ">35", "unit": "fold"},
      {"measurement": "SN-38 formation from CPT-11 (in words)", "setting": "[3]; conditioned media", "value": "increased CPT-11 conversion to SN-38"}
    ]},
    {"molecule": "B5", "values": [
      {"measurement": "Fold improvement in CPT-11 conversion", "setting": "[3]", "value": ">50", "unit": "fold"},
      {"measurement": "Fold improvement in CPT-11 conversion", "setting": "[3]; listed as F227A/L268S", "value": "≥ 50", "unit": "fold"},
      {"measurement": "SN-38 formation from CPT-11 (in words)", "setting": "[3]; conditioned media", "value": "significant conversion; also recorded: increased CPT-11 conversion to SN-38"}
    ]},
    {"molecule": "B6", "values": [
      {"measurement": "Km", "setting": "[4]", "value": "~7", "unit": "µM"},
      {"measurement": "Km", "setting": "[4]; listed as BChE variant 4-1", "value": 6.9, "unit": "µM"},
      {"measurement": "fold increase in CPT-11 hydrolysis over wild-type BChE", "setting": "[4]", "value": "> 3000", "unit": "fold"},
      {"measurement": "fold increase in CPT-11 hydrolysis over wild-type BChE", "setting": "[4]; listed as BChE variant 4-1", "value": "> 3000", "unit": "fold"},
      {"measurement": "fold increase in CPT-11 hydrolysis over wild-type BChE", "setting": "[4]; listed as SEQ ID NO: 180", "value": "three thousand"},
      {"measurement": "fold improvement in the Km for CPT-11", "setting": "[4]", "value": "5-6 fold"},
      {"measurement": "fold improvement in the Km for CPT-11", "setting": "[4]; listed as BChE variant 4-1", "value": "> 5", "unit": "fold"}
    ]},
    {"molecule": "B7", "values": [
      {"measurement": "Fold improvement in CPT-11 conversion", "setting": "[3]", "value": ">10", "unit": "fold"},
      {"measurement": "SN-38 formation from CPT-11 (in words)", "setting": "[3]; conditioned media", "value": "increased CPT-11 conversion to SN-38"}
    ]},
    {"molecule": "B8", "values": [
      {"measurement": "Fold improvement in CPT-11 conversion", "setting": "[3]", "value": ">7", "unit": "fold"},
      {"measurement": "SN-38 formation from CPT-11 (in words)", "setting": "[3]; conditioned media", "value": "increased CPT-11 conversion to SN-38"}
    ]},
    {"molecule": "B9", "values": [
      {"measurement": "SN-38 formation from CPT-11 (in words)", "setting": "[3]; conditioned media", "value": "produced a small amount of SN-38; also recorded: increased CPT-11 conversion to SN-38"}
    ]},
    {"molecule": "B10", "values": [
      {"measurement": "Km", "setting": "[1]", "value": 3.4, "unit": "µM"},
      {"measurement": "rate of CPT-11 conversion to SN38, fold higher than hCE-1", "setting": "[1]; at pharmacologically relevant drug concentrations (˜1-10 μM)", "value": "25-30 fold"}
    ]}
  ]
}
